# From publication PMC7618119
# Experiments:
# [1] = target: human μ-opioid receptor (AtT20FlpInMOR cells) (human) (UniProt P35372)
# [2] = target: human μ-opioid receptor-RlucII (human) (UniProt P35372)
# [3] = target: rat HA-μ-opioid receptor (rat) (UniProt P33535)
# Chain of UniProt P33535 (P33535 whole entry): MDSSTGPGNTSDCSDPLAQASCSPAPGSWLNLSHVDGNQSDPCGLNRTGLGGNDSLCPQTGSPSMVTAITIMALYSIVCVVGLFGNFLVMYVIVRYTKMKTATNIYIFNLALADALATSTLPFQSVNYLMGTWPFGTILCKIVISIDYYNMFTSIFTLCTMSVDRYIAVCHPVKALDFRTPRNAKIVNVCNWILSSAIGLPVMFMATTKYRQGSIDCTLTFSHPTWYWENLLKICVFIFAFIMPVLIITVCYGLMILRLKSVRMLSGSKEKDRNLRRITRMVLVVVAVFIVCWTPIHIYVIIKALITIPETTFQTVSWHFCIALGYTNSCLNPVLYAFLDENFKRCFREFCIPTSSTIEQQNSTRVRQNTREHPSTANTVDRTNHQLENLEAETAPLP
substance,measurement,setting,value
"[D-Ala^2, N-MePhe^4, Gly-ol]-enkephalin (peptide)","apparent rate constant of dissociation (koff): decay of the membrane potential response to the EC75 concentration after naloxone 10 μM, AtT20 cells",[1],> 0.126 s⁻¹
same,"apparent rate of dissociation (t1/2): decay of the membrane potential response to the EC75 concentration after naloxone 10 μM, AtT20 cells",[1],< 5.5 s
same,"membrane potential dye fluorescence (hyperpolarisation) in μ-opioid receptor-expressing AtT20 cells, agonist pEC50, first set of experiments (log M (printed under pEC50))",[1],-7.98
same,"membrane potential dye fluorescence (hyperpolarisation) in μ-opioid receptor-expressing AtT20 cells, agonist pEC50, second set of experiments (log M (printed under pEC50))",[1],-8.12
same,"β-arrestin 2 translocation BRET (μ-opioid receptor-RlucII with β-arrestin-2-GFP) in HEK293T cells, agonist pEC50, first set (log M (printed under pEC50))",[2],-6.12
same,"β-arrestin 2 translocation BRET (μ-opioid receptor-RlucII with β-arrestin-2-GFP) in HEK293T cells, agonist pEC50, second set (log M (printed under pEC50))",[2],-6.33
same,"Gi protein activation BRET (decrease of BRET between Gαi1-RlucII and GFP10-Gγ2) in HEK293T cells, agonist pEC50, first set (log M (printed under pEC50))",[3],-6.82
same,"Gi protein activation BRET (decrease of BRET between Gαi1-RlucII and GFP10-Gγ2) in HEK293T cells, agonist pEC50, second set (log M (printed under pEC50))",[3],-6.99
